Test results as given in paper PMC6748592.

Target: CD52 peptide mimotope (…) (human)
Test: SPR

Kd: 1250 nM
B1: MAB1 light chain N33D mutant (antibody, V domains shown)
VH: EVQLVESGGGLVQPGGSLRLSCAASGFPFSNYWMNWVRQAPGKGLEWVGQIRLKSNNYATHYAESVKGRFTISRDDSKNSLYLQMNSLKTEDTAVYYCTPIDYWGQGTTVTVSS
VL: DIVMTQTPLSLSVTPGQPASISCKSSQSLLYSDGKTYLNWVLQKPGQSPQRLIYLVSKLDSGVPDRFSGSGSGTDFTLKISRVEAEDVGVYYCVQGSHFHTFGQGTKLEIK
